Assay [1] deals with T1, recombinant hSIRPα (human, UniProt P78324).
T1 construct: signal-regulatory protein α (SIRPα), human, recombinant extracellular portion; source: bought: Acrobiosystems
Briefly: HDX-MS; hSIRPα with Nb S8, S33 or S36; methods not in the text shown. The conditions noted are these: both partners purified.

The target of assay [2] is T2, full-length hSIRPα on U2OS cells (Homo sapiens, UniProt P78324).
T2 construct: signal-regulatory protein α (SIRPα), human, full-length, co-expressed with IRES-derived GFP; also called U2OS-hSIRPα; source: U2OS, stably expressing, on live cells
T2 sequence (P78324 31-504): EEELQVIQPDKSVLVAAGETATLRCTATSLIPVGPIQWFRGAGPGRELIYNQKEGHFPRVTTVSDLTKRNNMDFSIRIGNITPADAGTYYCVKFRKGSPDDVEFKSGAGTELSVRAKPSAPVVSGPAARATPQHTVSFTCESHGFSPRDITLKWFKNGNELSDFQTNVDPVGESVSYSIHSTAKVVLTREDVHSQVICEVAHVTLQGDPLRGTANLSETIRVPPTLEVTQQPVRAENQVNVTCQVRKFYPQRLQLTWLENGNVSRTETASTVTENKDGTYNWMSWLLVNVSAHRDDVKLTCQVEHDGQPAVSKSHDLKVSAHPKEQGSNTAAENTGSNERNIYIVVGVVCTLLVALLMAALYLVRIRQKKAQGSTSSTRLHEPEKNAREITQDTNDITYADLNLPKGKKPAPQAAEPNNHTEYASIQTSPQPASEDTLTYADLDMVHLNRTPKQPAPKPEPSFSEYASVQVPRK
Briefly: immunostaining of cells or tissue; live-cell immunofluorescence on U2OS cells expressing the target; unlabeled Nbs (1 nM to 100 nM) with Cy5-labeled anti-VHH, 1 h at 37°C. Particulars: one partner purified.

Assay [3] deals with T3, hSIRPα domain 2 displayed on U2OS cells (Homo sapiens, UniProt P78324).
T3 construct: signal-regulatory protein α (SIRPα), human, domain 2; also called hSIRPαD2; D2; source: U2OS, transiently expressing, on live cells
T3 sequence (P78324 whole entry, looked up, tested part not stated): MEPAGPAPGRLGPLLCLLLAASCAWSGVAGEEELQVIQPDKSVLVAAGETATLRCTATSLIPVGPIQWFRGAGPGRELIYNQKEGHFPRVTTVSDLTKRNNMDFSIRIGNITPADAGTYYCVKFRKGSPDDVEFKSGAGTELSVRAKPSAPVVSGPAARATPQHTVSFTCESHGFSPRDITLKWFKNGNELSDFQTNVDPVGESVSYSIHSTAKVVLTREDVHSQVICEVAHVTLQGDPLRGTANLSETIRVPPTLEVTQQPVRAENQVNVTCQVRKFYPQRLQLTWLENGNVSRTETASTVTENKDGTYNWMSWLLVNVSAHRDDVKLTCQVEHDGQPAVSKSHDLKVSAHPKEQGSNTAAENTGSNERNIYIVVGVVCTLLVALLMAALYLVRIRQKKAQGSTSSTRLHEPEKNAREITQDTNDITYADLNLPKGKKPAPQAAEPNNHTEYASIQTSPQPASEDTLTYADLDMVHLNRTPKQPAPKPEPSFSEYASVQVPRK
The assay is described as above. The conditions noted are these: one partner purified.

Assay [4] has as its target T4, hSIRPα domain 3 displayed on U2OS cells (Homo sapiens, UniProt P78324).
T4 construct: signal-regulatory protein α (SIRPα), human, domain 3; also called hSIRPαD3; D3; source: U2OS, transiently expressing, on live cells
The description is as above. The conditions noted are these: one partner purified.

Assay [5] concerns the target T5, hSIRPα-V1 displayed on U2OS cells (Homo sapiens, allele V1, UniProt P78324).
T5 construct: signal-regulatory protein α (SIRPα), human, allelic variant V1; also called hSIRPα variant V1; source: U2OS, transiently expressing, on live cells
The assay is described as above. Particulars: one partner purified.

Assay [6] concerns the target T6, hSIRPβ1 displayed on U2OS cells (Homo sapiens, UniProt O00241).
T6 construct: signal-regulatory protein β1 (SIRPβ1), human; source: U2OS, transiently expressing, on live cells
Described as above. The conditions noted are these: one partner purified.

Assay [7] deals with T7, hSIRPγ displayed on U2OS cells (Homo sapiens, UniProt Q9P1W8).
T7 construct: signal-regulatory protein γ (SIRPγ), human; also called hSIRPy; source: U2OS, transiently expressing, on live cells
T7 sequence (Q9P1W8 29-387): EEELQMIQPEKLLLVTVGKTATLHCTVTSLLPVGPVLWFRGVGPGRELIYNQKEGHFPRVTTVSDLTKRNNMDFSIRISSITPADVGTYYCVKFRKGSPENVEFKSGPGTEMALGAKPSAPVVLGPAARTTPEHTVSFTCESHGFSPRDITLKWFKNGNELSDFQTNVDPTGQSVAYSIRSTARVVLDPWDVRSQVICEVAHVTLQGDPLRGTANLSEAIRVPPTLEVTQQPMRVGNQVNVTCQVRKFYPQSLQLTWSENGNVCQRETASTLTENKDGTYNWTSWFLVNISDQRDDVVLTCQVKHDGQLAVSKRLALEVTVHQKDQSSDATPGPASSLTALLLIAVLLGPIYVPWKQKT
The assay is described as above. The conditions noted are these: one partner purified.

For assay [8], the target named is T8, murine SIRPα displayed on U2OS cells (Mus musculus, UniProt P97797).
T8 construct: signal-regulatory protein α (SIRPα), mouse; also called mouse SIRPα; source: U2OS, transiently expressing, on live cells
T8 sequence (P97797 32-513): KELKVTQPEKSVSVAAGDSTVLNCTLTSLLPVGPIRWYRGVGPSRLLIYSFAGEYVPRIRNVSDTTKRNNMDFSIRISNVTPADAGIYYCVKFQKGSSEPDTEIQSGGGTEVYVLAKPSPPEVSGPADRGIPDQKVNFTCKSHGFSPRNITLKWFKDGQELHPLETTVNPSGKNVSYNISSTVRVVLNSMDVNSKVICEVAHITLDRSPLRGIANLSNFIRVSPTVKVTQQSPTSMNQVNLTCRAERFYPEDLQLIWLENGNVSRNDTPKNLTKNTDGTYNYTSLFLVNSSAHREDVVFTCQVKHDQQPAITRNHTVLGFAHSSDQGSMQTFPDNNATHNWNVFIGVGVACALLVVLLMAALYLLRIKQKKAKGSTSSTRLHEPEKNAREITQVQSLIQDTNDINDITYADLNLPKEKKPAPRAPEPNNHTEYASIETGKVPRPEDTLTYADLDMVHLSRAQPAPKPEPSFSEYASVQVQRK
Described as above. Particulars: one partner purified.

The target in assay [9] is T9, biotinylated recombinant hSIRPα (extracellular portion) (Homo sapiens, UniProt P78324, biotin (Sulfo-NHS-LC-LC-Biotin)).
T9 construct: signal-regulatory protein α (SIRPα), human, recombinant extracellular portion; also called biotinylated hSIRPα; signal-regulatory protein α; source: bought: Acrobiosystems
T9 sequence (P78324 31-373): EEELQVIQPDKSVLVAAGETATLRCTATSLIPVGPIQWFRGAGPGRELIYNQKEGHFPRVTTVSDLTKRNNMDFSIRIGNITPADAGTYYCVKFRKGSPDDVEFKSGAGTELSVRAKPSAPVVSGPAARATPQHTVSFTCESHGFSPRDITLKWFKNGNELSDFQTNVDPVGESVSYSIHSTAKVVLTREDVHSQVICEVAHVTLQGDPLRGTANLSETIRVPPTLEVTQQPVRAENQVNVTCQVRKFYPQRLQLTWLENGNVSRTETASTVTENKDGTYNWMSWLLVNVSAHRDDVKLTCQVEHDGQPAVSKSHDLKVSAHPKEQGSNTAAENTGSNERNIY
The experiment in a line: BLI; Octet RED96e; biotinylated hSIRPα (5 µg/mL) immobilised on streptavidin biosensors; Nbs 0.625 nM to 320 nM in Octet buffer (PBS, 0.1% BSA, 0.02% Tween-20); association 240 s, dissociation 720 s; 1:1 model, global fit. Particulars: both partners purified.

Assay [10] concerns the target T10, hSIRPα on HT1080 hSIRPα knock-in cells (Homo sapiens, UniProt P78324).
T10 construct: signal-regulatory protein α (SIRPα), human; source: HT1080 hSIRPα knock-in (KI) cells, on cells
The experiment in a line: radioligand binding; antigen excess binding assay: 1 ng (2 MBq/µg) of ^64Cu-hSIRPα-S36K>R Nb on an increasing number of HT1080-hSIRPα cells, 1 h at 37°C; cell-bound radioactivity counted. The conditions noted are these: one partner purified.

The results in this text go back to paper PMC10757926, “Two birds with one stone: human SIRPα nanobodies for functional modulation and in vivo imaging of myeloid cells” (Frontiers in Immunology, 2023).

Numbering of substitutions follows the chain as printed. Names and notes keep the numbering of the source.

T6 sequence (O00241 30-398): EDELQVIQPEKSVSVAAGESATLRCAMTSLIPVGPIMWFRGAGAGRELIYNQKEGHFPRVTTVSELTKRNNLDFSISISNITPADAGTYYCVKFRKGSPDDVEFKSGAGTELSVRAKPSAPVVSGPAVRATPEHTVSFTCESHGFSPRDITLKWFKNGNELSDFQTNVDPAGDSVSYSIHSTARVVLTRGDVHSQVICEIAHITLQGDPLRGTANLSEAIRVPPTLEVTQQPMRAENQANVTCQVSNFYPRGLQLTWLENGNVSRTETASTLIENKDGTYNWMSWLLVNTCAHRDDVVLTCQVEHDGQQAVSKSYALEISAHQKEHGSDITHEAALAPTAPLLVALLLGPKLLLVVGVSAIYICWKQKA
T4 sequence (P78324 whole entry, looked up, tested part not stated): as the sequence (P78324 whole entry, looked up, tested part not stated) above
T5 sequence (P78324 31-504): as the sequence (P78324 31-504) above
T10 sequence (P78324 31-504): as above
T1 sequence (P78324 31-373): as the sequence (P78324 31-373) above

B1: hSIRPα-S36 Nb (VHH)
VHH: EVQLVESGGGLVQPGGSLRLSCAASGFTLDYYAIGWFRQVPGKEREGVSCISSDGGGNTYYADSVKGRFTISRDNAKNTVYLQMNSLKPEDSAVYSCAAGPTYYSGSYCRDPHSDYDYWGQGTQVTVSS
notes: selected against the entire extracellular portion of hSIRPα; also called Nb S36; original S36 Nb; source: E. coli XL-1, purified (IMAC, SEC); not shown: His tag (from the IMAC purification)
On to B1, for which the binding result in [1] is “binds”; in assay [2] it was “binds”; in assay [3] it was “binds”; in assay [4], “no binding (tested: Nbs 1 nM to 100 nM)”; in assay [5], “binds”; in assay [6], “binds”. In addition, the figures for the binding result in [7], in assay [8] and in assay [9] were “binds”, “no binding (tested: Nbs 1 nM to 100 nM)” and “binds”, respectively.

B2: ^64Cu-hSIRPα-S36K>R Nb (VHH)
VHH: B1 VHH with K43R, K66R, K77R, K88R
notes: as the VHH of m15 (S36 with all four lysine residues replaced by arginine); also called ^64Cu-labeled hSIRPα-S36K>R Nb; source: E. coli, purified; chelator conjugated and radiolabeled with ^64Cu
For B2, in assay [10], the binding result was “binds”.

B3: hSIRPα-S36K>R Nb (VHH)
VHH: B1 VHH with K43R, K66R, K77R, K88R
notes: as the VHH of m9 (S36); source: E. coli, purified
Consider B3, for which, in assay [9], the binding result is listed as “binds”.
